In a protein production outcome set (Wang et al. 2014):

Experiment: label from the status in PepcDB records
For “KLKKKEYEQELKKLQVELVKLQEWVKHKGLKVVVLFEGRDAAGKGGVIKRITEKLNHRVCRVVALPAPTEKEKTQWYFQRYVAHLPSAGEIVLFDRSWYNRAGVEKVMGFCTPDEYEEFLRSCPEFERMLQRSGIILLKYWFSVSDEEQEKRFLGRINTPIKRWKFSPMDLESRHRWAEYSEAKDKMFAYTDTKNCPWWVVPSDSKQKARLNCISHLLSQIEYKALEYP”, the protein production was “not failed”.
In the case of “KNKKVILFAPTFRGNGHRTAHYPFFKINFARLASYCEEHQATVLFKMHPFVRNKLNIPAIYSKYFLDISNYREVNDVLFITDILISDYSSLIYEFSVFKKPMLFYAFDLEDYIYTRDFYEPYETFVPGKIVKIFDELILALENNDFELEKVKPFLNKNFKYKDGKSSERLVKDLFNKFFQ”, the protein production is reported as “failed”.
With “KPREEKRTALSKVVIRRLPPGLTKEQLEEQLRPLPAHDYFEFFAADLSLYPHLYSRAYINFRNPDDILLFRDRFDGYIFLDSKGLEYPAVVEFAPFQ” the protein production was “failed”.
For “KQQKDGSWLMDALIPLNELKYKLGLTTIEGEESEGFQTLNGFLTWWLGRLPHAGELVDYEGWQFEVLNVKHHRIVQVKVSRETESETTTDTNDGDANP”, the protein production was “not failed”.
For “KSVFPFSNVLKQTLLKRATVFLGVPAIYTAMSKAKIPWYFRWFNRIRLFISGGAPLAEQTILDFKAKFPRAKLLEGYGLSEASPVVAVNTPERQKARSVGIPLPGLEAKAVDEELVEVPRGEVGELIVRGGSVMRGYLNMPAATDETIVNGWLKTGDFVTIDEDGFIFIVDRKKDLIISKGQNVYPREIEEEIYKLDAVEAAAVIGVKDRYADEEIVAFVQLKEGMDLGENEIRRHLRTVLANFKIPKQIHFKDGLPRNATGKVLKRVLKEQFDGNK”, the protein production was “failed”.
For “KVKIPYQKYKLDNGLTVILAPEGSDPLVHVDVTYHVGSAREEIGKSGFAHFFEHMMFQGSENVGDQEHFKIITEAGGTLNGTTNRDRTNYFETVPANQLEKMLWLESDRMGFLLDAVSQRKFEIQRSTVKNERAQRYDNRPYGLIWERMSEALYPEGHPYSWQTIGYVEDLERVDVNDLKAFFLRWYGPNNATITIGGDLDVEQTLAWVNKYFGSIPRGP”, the protein production was “failed”.
With “KVKWTHEEDEQLRALVRQFGQQDWKFLASHFPNRTDQQCQYRWLRVL” the protein production was “not failed”.
In the case of “LADGDFIDLDWHGPHQPHAPLVIVLHGLTGSSHSPYVKGLQQALQDRGWASVAVNWRGCSGEPNLLPRSYHSGASEDLAEIVSHLRAQRPLAPLYAVGYSLGGNVLLKYLGESGVASQLEAAAAVSVPFRLDHCADRIGQGFSKVYQAHFMREMLAYVQLKQRHFHARGQHEQLATLERLGQLTNLRTFWDFDGKVTAPLNGFRDAHDYYRRSSSHFFLGQNRTPTLIIHSSDDPFVSSHSLPTARELSPQTRFELHDRGGHVGFVDG”, the protein production is reported as “failed”.
With “LAMPPGNSHGLEVGSLAEVKENPPFYGVIRWIGQPPGLNEVLAGLELEDECAGCTDGTFRGTRYFTCALKKALFVKLKSCRPDSRFASLQP” the protein production was “not failed”.
In the case of “LANRIENVVSQERTRKKFESLVSDSPDGIVHLTTNGTILSVNPSMAGRLGADPDTLVGQQLSAVMDSEAANQRLEAGKSAVENGTATRSEDAVGGRHYHNQYIPVDSHRKSDTFQLVSRDIT”, the protein production is reported as “not failed”.
In the case of “LAPGLHFIATPIGAARDITLRALDILRAADVLAAEDTRTLRHLMEIHGIPLGGRPLVAYHDHNGEAARPRLLRALAEGRSVAYASEAGTPLVADPGFQLGRAAIAAGHPVLAAPGPS”, the protein production is reported as “failed”.
For “LAPTAQKMSKNYGVLASILLSQAAYESNYGSSLLSVKYHNIYSLPARPGQEHIYLKDNVYSKGKWQYQKVDFAVFRDWSSSMSSYLEELRQGRWGESTYKEVAGTTSYKVAAEKLQAAGFNSDPDYTKHLISIIETYNLVKYDR”, the protein production was “failed”.
In the case of “LAYQPGKLLVRGDTPLFKIERLLGIDLDHIEAETLAGLIYETLKRVPEEEEQMEVEGLRIIIKKMKGPKIVLAKVLKLD”, the protein production is reported as “not failed”.
For “LDAVVQEKFSGRRWTIPAKVYARPLELFNGLKLSREDFLRELDALGYRREPSVSGPGTVSVAASAVELNTRGFQFYEGAEPAQRVRVRFNGNYVSGLSQANGKELAVARLEPLLIGGLYPAHHEDRILVKLDQVPTYLIDTLVAVEDRDFWNHHGVSLKSVARAVWVNTTAGQLRQGGSTLTQQLVKNFFLSNERSLSRKINEAMMAVLLELHYDKRDILESYLNEVFLGQDGQRAIHGFGLASQYFFSQPLAELKLDQVALLVGMVKGPSYFNPRRYPDRALARRNLVLDVLAEQGVATQQEVDAAKLRPLGVTRQGSMADSSYPAFLDLVKRQLRQDYRDEDLTEEGLRIFTSFDPILQEKAETSVNETLKRLSGRKGVDQVEAAMVVTNPETGEIQALIGSRDPRFAGFNRALDAVRPIGSLIKPAVYLTALERPSKYTLTTWVQDEPFAVKGQDGQVWRPQNYDRRSHGTIFLYQGLANSYNLSTAKLGLDVGVPNVLQTVARLGINRDWPAYPSMLLGAGSLSPMEVATMYQTIASGGFNTPLRGIRSVLTADGQPLKRYPFQVEQRFDSGAVYLVQNAMQRVMREGTGRSVYSQLPSSLTLAGKTGTSNDSRDSWFSGFGGDLQAVVWLGRDDNGKTPLTGATGALQVWASFMRKAHPQSLEMPMPENVVMAWVDAQTGQGSAADCPNAVQMPYIRGSEPAQGPGCGSQNPAGEVMDWV”, the protein production was “failed”.
With “LEEHEQFNHKIVASAPVGISILRIRDGMIILSNELAHNYFRLLSHSDKQNILSIIAEKSSNIVDVVTNNHNHLQISFVNSRYQNEDVAICVLVDISARVKMERSLQNMATAAEQANQAKSMFLATVSHELRTPLYGIIGNL” the protein production was “failed”.
In the case of “LENDRTTFRIRNLDSGEIIWSGMGAVYPVYSPSFDHAADAFAFAFSSPADPPEIHLLRDAETKSSINSHLDGVSPYPAEIVEWKAKDGEDLYGILRLIDPKNPLIVYIHGGPTSFSYASFLDRTSIYLGYGFNVFAPNYRGSVGKGRRYAELNVGDLGGKDFDDVISGIEFLKNTGKIATDR”, the protein production is reported as “failed”.
For “LENQISFRKALSDSLPNPTYVVNWQGNVISHNSAFEHYFTADYYKNAMLPLENSDSPFKDVFSNAHEVTAETKENRTIYTQVFEIDNGIEKRCINHWHTLCNLPASDNAVYICGWQDITETRDLINALEVEKNKAIKATVAKSQFLATMSHEIRTPISSIMGFL”, the protein production was “failed”.
In the case of “LEQVQESKAESTAPSSDAVVVSKTNTSSMPVAELRSLIDDLTTQMGTAARELKFELAGRLRDEIAELKKELRGMEEIGLA”, the protein production is reported as “failed”.
For “LERAKLVSIDRVIDDLSRNIDIEEVSQALAGQVIIDIRHPDAQEDQPLQVPGVEIQTLPFYALNSRFKALDDTRQYLLYCDKGVMSRLHAHHLLSEGHANVRVY”, the protein production was “failed”.
With “LEYSNIPITDNNKVKLIKSGREKFEDLFEAIRGAKHHIHLEYFNFRNDSIANALFDLLGEKVKEGVKVRAMFDAFGNWSNNKPLKKRHLKAIREKGIEIVKFDPFKFPYINHAAHRDHRKIAVIDGKIGYTGGMNIADYYINGLPKIGTWRDMHIRIEGDAVNILQEIFLDIWNKTTKQNIVGEEYFPNHPERADSCNTVISIVDRTPKRNSRMLSHT” the protein production was “failed”.
In the case of “LFQIVEQSFGRPLSPYEIETLNQWIDVDHHDLSVIQAALDEALSQNKLSFKYIDRILLNWKKNNVKTVDDSKK”, the protein production is reported as “not failed”.
For “LFYDSEQDKEQSNPYMVLDIDKLFHVRPVTQTDVYRADAKEIPRIFQILYANEGESKKEQEFPVEPVGEKSNYICHKGHEFIPTLYHFPTNCEACMKPLWHMFKPPPALECRRCHIKCHKDHMDKKEEIIAPCKVYYDISTAKNLLLLANSTEEQQKWVSRLV”, the protein production was “failed”.
In the case of “LKMLRDMTGLPHNRKCFDCDQRGPTYVNMTVGSFVCTSCSGSLRGLNPPHRVKSISMTTFTQQEIEFLQKHGNEVCKQIWLGLFDDRSSAIPDFRDPQKVKEFLQEKYEKKRWYVPPEQAK”, the protein production is reported as “not failed”.
For “LKPERVITKNSGASLIDLGDDVALLEFHSPNNSIGFDVVQMINKAVDEVEANYKGLVIGNQGKNFCVGANLMMILMEAQDDNFFEIDMVVRQFQQAMAKIRYSQKPVVSAPFAMTLGGGTEICLPTASIQASLETYMGLVEVGVGVIPGGGGNKELYLRHLERLPEGANIDLQSIANKTFETIAMAKVSTSAHEAMENGFLSERDGVVVNGDHLLYQAKQQVIHLHDAG”, the protein production was “failed”.
In the case of “LKPLSIIYNGKSGFHASDKEGVYEQIMTLFTRYDFEIQVFELNEKITFDELMEQVLLRHLNLNTSEYKGVIVAAGGDGTLNAVASRLVDTPIPMGILPLGTFNYVARVLNIPLDLLAAAEVIADGTIRSVHVATINDRIYLNNASLG”, the protein production is reported as “failed”.
For “LLPKYNILTEDQVQKIHENTMKILEEIGIEFEYEPALEVFRREGQKVEGKRVYLTREFVESKLKSAPAEFTLHARNPENNVVIGGDNIVFMPGYGAPFIYELDGSRRKTTLQDYENFAKLAGASKNMHLSGGTMAEPQDIPDGVRHLQMLYSSIKNSDKCFMGSAEGKERAEDSVEIAAILFGGKDVIKEKPVLVSLINSLTPLKYDERMLGALMAYAEAGQAVIIASLVMAGSTGPASLAGTLSLQNAEVLAGISLAQSINPGTPVIYGSTSALSDMRSGSLSIGSPECALFISASAQLARFYGVPSRSGGGLNDSKTVDAQAGYESMMTLMAANLTGVNFVLHTAGILQYFMAMSYEKFIMDDEIAGMLLHYMKGYTFDEDGMAFDVIEKVGPGGHFLTQKHTRKNHKREFYTPTLSDRSAYDTWAKEKLETKQRAHARWQQILANYVPPALDPEIDAKLQAFIAQRGKEVGEE”, the protein production was “not failed”.
With “LMLACMNMARKKTGALIAIQQGIDLTPFAHTGEVFRAEVNARLVENIFFKNSPLHDGAMVIADNSIIAAGCILPVAYNTDLNKDLGLRHRSALGLSQETDAKIIIISEERGRISFAYRGEIHQDITTDELQLLLED” the protein production was “failed”.
With “LNIAQKGREGRKIGTAFVMGDVEEVMSRSSQLVINPYHGHKEADRDIKNPENWESVMEFAQIDGVFVLDENGIIIACGRYIEASAKDLVSKIKRGLGGRHIACASITKETKAIAVVVSESGGDITVYKDGVEVMHIPSLLF” the protein production was “failed”.
For “LNLPYDEHADAWTQVKKALAAGKRTHKPTLLVFGANWCTDCRALDKSLRNQKNTALIAKHFEVVKIDVGNFDRNLELSQAYGDPIQDGIPAVVVVNSDGKVRYTTKGGELANARKMSDQGIYDFFAKITE”, the protein production was “not failed”.
With “LNSAPTPRDVVANAPAPVQAAVAGAQEYAAQAGLNTEELAVDALYNAIKVRLAGTGLGIPPQIEAFYQANRTNFNGFYMANRGAIDFIFSM” the protein production was “not failed”.
With “LPLCDSLIIWLQTFKTASPCQDVKQLTNGVTMAQVLHQIDVAWFSESWLSRIKDDVGDNWRIKASNLKKVLHGITSYYHEFLGQQISEELIPDLNQITECADPVELGRLLQLILGCAVNCEKKQEHIKNIMTLEESVQHVVMTAIQELMSK” the protein production was “not failed”.
With “LPSDVTEGKTVFIRNLSFDSEEEALGEVLQQFGDLKYVRVVLHPDTEHSKGCAFAQFMTQEAAQKCLAAASLEAEGGGLKLDGRQLKVDLAVTRDEAA” the protein production was “not failed”.
For “LQPNMRTRVCTVINNNIAHEWTLARIASELLMSPSLLKKKLREEETSYSQLLTECRMQRALQLIVIHGFSIKRVAVSCGYHSVSYFIYVFRNYYGMTPTEYQERSAQRLSNRDSAAS”, the protein production was “not failed”.
For “LRLSCFIDQPTGLFNRSRLQEDIHEALASSVDYQLVVVDMITSAFLNDIVKALGYDFSQDLVTAIKERIESLLPRTCSLYKVGPTRFGFLLPGDRPPEHLFRTILEDFETPVECRGIPVQMQVGLGVVTLNRDPNEEQDWMRMVISAADDARDRDLGWA”, the protein production was “failed”.
